# Laboratory results published in publication PMC9963953, “Structures of MPND Reveal the Molecular Recognition of Nucleosomes”.
# T1: MPND 54-163 (RAMA domain, crystal) (Mus musculus, UniProt Q3TV65 54-163)
# T1 sequence: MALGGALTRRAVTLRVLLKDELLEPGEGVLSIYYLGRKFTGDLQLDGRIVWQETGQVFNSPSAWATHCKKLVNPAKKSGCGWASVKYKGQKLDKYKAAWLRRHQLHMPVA
# B1: crystallization dsDNA (dsDNA)
# DNA 1: CAGCAACAGAAGAGGATCT
# DNA 2: GAGATCCTCTTCTGTTGCT
# Target: T1, MPND 54-163 (RAMA domain, crystal)
# Test: X-ray crystallography (2.47 A); EMSA: 20 mM HEPES pH 7.2, 100 mM NaCl, 2 mM DTT, 0.1% NP-40, 20 uM protein, 5 uM DNA, on ice; MST: 20 mM HEPES pH 7.2, 100 mM NaCl, 0.1% NP-40, 22 C; pull-down: 20 mM HEPES pH 7.2, 0.15 M NaCl, 1 mM DTT, 4 C
# Conditions: protein: recombinant; tags: tag removed with TEV; 18 bp, 5' overhangs 1 nt
binder,measurement,value
B1,binding result,binds
